Target: T1, HA-tagged KDM5C, full length (UniProt P41229 1-1560)
T1 construct: KDM5C (JARID1C, SMCX), histone demethylase; the truncations run to residue 1560; KDM5C was sub-cloned into pCDH-3×Flag-3×HA-EF1-puro and into pLV-EF1-puro(cs2.0)-N-3×HA; also called HA-KDM5C; KDM5C FL; source: HEK293T, transfected, in lysate, nuclear extract or cytosolic extract; HEK293T, purified on anti-HA agarose
Assay: co-IP; cytosolic extracts from transfected HEK293T cells; IP with anti-HA antibody; immunoblotting
Conditions: partners not purified

T1 sequence (P41229 whole entry, the tested form may be a part): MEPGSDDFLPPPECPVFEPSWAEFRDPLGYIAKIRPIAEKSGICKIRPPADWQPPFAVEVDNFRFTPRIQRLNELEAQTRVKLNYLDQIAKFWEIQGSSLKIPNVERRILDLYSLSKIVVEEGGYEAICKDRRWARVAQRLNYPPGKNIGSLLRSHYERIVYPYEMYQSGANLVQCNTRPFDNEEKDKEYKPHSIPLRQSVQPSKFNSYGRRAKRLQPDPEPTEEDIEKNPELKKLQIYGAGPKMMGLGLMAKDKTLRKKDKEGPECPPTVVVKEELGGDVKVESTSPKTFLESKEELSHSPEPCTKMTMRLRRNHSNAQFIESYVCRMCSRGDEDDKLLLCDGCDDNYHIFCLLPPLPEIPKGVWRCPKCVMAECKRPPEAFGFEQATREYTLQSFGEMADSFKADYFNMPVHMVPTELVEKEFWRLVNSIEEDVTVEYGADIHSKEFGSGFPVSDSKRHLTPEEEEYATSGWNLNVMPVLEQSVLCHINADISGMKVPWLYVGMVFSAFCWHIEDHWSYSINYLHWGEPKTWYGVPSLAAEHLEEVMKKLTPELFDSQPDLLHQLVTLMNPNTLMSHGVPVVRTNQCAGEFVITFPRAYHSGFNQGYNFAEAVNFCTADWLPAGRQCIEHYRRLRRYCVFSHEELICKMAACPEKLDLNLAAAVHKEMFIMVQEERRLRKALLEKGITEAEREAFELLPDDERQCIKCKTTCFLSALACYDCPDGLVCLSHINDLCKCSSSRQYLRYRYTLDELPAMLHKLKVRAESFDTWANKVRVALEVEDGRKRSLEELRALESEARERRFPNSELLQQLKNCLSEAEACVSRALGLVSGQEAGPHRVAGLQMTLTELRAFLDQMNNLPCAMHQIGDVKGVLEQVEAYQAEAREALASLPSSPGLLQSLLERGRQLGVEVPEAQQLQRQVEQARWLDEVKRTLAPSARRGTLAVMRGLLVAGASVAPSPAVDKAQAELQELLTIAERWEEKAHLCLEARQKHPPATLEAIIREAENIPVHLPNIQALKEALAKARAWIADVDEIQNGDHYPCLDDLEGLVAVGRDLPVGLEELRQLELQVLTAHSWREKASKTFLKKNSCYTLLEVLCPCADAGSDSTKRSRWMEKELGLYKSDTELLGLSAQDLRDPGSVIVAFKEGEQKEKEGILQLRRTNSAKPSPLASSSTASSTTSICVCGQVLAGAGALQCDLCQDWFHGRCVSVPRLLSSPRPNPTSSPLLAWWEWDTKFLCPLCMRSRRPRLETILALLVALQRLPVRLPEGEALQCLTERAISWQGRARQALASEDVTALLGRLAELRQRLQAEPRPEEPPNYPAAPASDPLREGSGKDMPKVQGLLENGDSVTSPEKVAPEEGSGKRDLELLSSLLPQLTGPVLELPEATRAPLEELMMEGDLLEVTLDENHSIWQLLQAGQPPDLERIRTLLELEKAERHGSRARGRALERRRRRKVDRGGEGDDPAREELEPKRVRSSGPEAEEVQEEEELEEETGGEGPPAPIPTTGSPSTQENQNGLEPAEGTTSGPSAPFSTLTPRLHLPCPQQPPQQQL

binding result: binds
B1: Flag-tagged TBK1 (pBOBI-3×Flag-hTBK1) (enzyme, human, UniProt Q9UHD2 1-729, looked up)
chain: MQSTSNHLWLLSDILGQGATANVFRGRHKKTGDLFAIKVFNNISFLRPVDVQMREFEVLKKLNHKNIVKLFAIEEETTTRHKVLIMEFCPCGSLYTVLEEPSNAYGLPESEFLIVLRDVVGGMNHLRENGIVHRDIKPGNIMRVIGEDGQSVYKLTDFGAARELEDDEQFVSLYGTEEYLHPDMYERAVLRKDHQKKYGATVDLWSIGVTFYHAATGSLPFRPFEGPRRNKEVMYKIITGKPSGAISGVQKAENGPIDWSGDMPVSCSLSRGLQVLLTPVLANILEADQEKCWGFDQFFAETSDILHRMVIHVFSLQQMTAHKIYIHSYNTATIFHELVYKQTKIISSNQELIYEGRRLVLEPGRLAQHFPKTTEENPIFVVSREPLNTIGLIYEKISLPKVHPRYDLDGDASMAKAITGVVCYACRIASTLLLYQELMRKGIRWLIELIKDDYNETVHKKTEVVITLDFCIRNIEKTVKVYEKLMKINLEAAELGEISDIHTKLLRLSSSQGTIETSLQDIDSRLSPGGSLADAWAHQEGTHPKDRNVEKLQVLLNCMTEIYYQFKKDKAERRLAYNEEQIHKFDKQKLYYHATKAMTHFTDECVKKYEAFLNKSEEWIRKMLHLRKQLLSLTNQCFDIEEEVSKYQEYTNELQETLPQKMFTASSGIKHTMTPIYPSSNTLVEMTLGMKKLKEEMEGVVKELAENNHILERFGSLTMDGGLRNVDCL
notes: TBK1, kinase; hTBK1 in the construct's name; The end of the tag and the species are read from the printed name of the construct; also called Flag-TBK1; source: HEK293T, transfected, in cytosolic extract; HEK293T, purified (eluted with 3×Flag peptide); not shown: 3×Flag, N-terminal, kept
